Measured values from the nanobody polyreactivity screen of Harvey et al. (2022).

assay: yeast display, Sf9 membrane polyspecificity reagent, FACS + sequencing; frameworks hold sequencing errors
Procedure, shortened: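 A synthetic nanobody library was expressed on Saccharomyces cerevisiae BJ5465 by galactose induction for 36–48 hours. The library was stained for 1 hour at 4 °C with 10% biotinylated, detergent-solubilized Sf9 membrane reagent and enriched with streptavidin microbeads before FACS. Low and high (top ~1%) gates were set on anti-HA fluorescence for expression and streptavidin fluorescence for reagent binding, and each polyreactivity label reflects the gate of origin.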

Sequence | polyreactivity (PSR sort gate)
QVQLVESGGGLVQAGGSLRLSCAASGRTFARNPMGWYRHAPGKERELVASIRWRGGSTYYADSVKGRFTISRDNAKNTVYLQMNRLKPEDTAVYYCATRYPYYVGRGYISYDYWGQGTQVTVSS | high polyreactivity
QVQLVESGGGLVQAGGSLRLSCAASGRTFASNAMGWYRQAPGKERELVAAISSSGGRTYYADSVKGRFTISRDNAKNTVYLQMNSLKPEDTAVYYCAKVGPVYKYDYWGQGTQVTVSS | high polyreactivity
QVQLVESGGGLVQAGGSLRLSCAASGRTFASYAMGWYRQAPAKDRELVAAITSGGSTKYADSVKGRFTISRDNAKNSVYFQMNSLTPEDTAVYYCWRYVFHLSNYYYWGQGTQVTVSS | high polyreactivity
QVQLVESGGGLVQAGGSLRLSCAASGRTFASYAMGWYRQAPGKERELVATIRSGDSTNYADSVKGRFTISRDNAKHTVYLQMNSLKPEDTAVYYCAADRDIFQQGANGAPYDYRGQGTQVTVSS | low polyreactivity
QVQLVESGGGLVQAGGSLRLSCAASGRTFASYAMGWYRQAPVKERELVARISKSGGSTYYADSVKGRFTISRDNAKNTVYLQMNSLKPEDTAVYYCAATRYPYLYRSEVGSDYWGQGTQVNVSS | low polyreactivity
QVQLVESGGGLVQAGGSLRLSCAASGRTFASYAMGWYRQATGKERELVAAITGSGGSTYYADSVKGRFTISRDNAKNTVYLQMNSLKPEDTAVYYCNKGPHYPVYLEYIVGYDYWGQGTQVTVSS | low polyreactivity
QVQLVESGGGLVQAGGSLRLSCAASGRTFATNAMGWYRQAPGKERELVAAITSRGGSTYYADSVKGRFTISRDNAKNTVYLQMNSLKPEDTAVYYCAAETSPSWYTWVTYDYWGQGTQVTVSS | high polyreactivity
QVQLVESGGGLVQAGGSLRLSCAASGRTFATYAMGWYRPAPGKERELVAAISRSGSTTYYADSVKGRFTISRDNAKNTVYLQMNSLKPEDTAVYYCNAKFRKADYDYWGQGTQVTVSS | high polyreactivity
QVQLVESGGGLVQAGGSLRLSCAASGRTFAVNAMGWYRQAPGKEREFVARISTRGGGTYYADSVKGRFTISRDNAKNTVYLQMNSLKPEDTAVYYCNAGRTRNYYYYPMDYWGQGTQVTVSS | high polyreactivity
QVQLVESGGGLVQAGGSLRLSCAASGRTFAVYAMGWYRQAPGKERELVASIRLSGTRTYYADSVKGRFTISRDNAKNTVYLQMNSLKPEDTAVYYCAAKGTYSRGTFNGYRYDYWGQGTQVTVSS | high polyreactivity
QVQLVESGGGLVQAGGSLRLSCAASGRTFAVYAMGWYRQAPGKERELVATINGGGNTNYADSVKGRFTISRDNAKNTVYLQMNSLKPVDTAVYYCAADAWDHWTWFYPTNGMDYWGQGTQVTVSS | low polyreactivity
QVQLVESGGGLVQAGGSLRLSCAASGRTFAWNAMGWYRQAPGKERELVAAISSRGTSTYYADSVKGRFTISRDNAKNTVYLQMNSLKPEDTAVYYCAKYTNPASGEYGYWGQGTQVTVSS | high polyreactivity
QVQLVESGGGLVQAGGSLRLSCAASGRTFAWYAMGWYRQAPGKERELVAAISSGGSTYYADSVKGRFTISRDNAKKTVYLQMNSLKPDDTAVYYCAAEWHYIYAYDYWRQGTQVTVSS | low polyreactivity
QVQLVESGGGLVQAGGSLRLSCAASGRTFAWYAMGWYRQAPGKERELVATITSRGGSTYYADSVKGRFTISRDNAKNTVYLQMNSLKPEDTAVYYCAAQSFWRPHQYDYWGQGTQVTVSS | low polyreactivity
QVQLVESGGGLVQAGGSLRLSCAASGRTFAYNTMGWYRQAPGKESELVAAITWSGGGTYYADSVKGRFTISRDNAKNTVYLQMNSLKPEDTAVYYCAVEYASPRARYRYYYWGQGTQVTVSS | high polyreactivity
QVQLVESGGGLVQAGGSLRLSCAASGRTFAYYAMGWYIPGPGKERELVAAISSGGSTYYADCVKGRFTISRDNAKNTVYLQMNSLIPEDTAVYYCATRDKQYYYWGQGTQVTVSS | high polyreactivity
QVQLVESGGGLVQAGGSLRLSCAASGRTFAYYAMGWYRQAPGKERELVAAIDLSDGTTFYADSVKGRFTISRDNAKNTVYLQMNSLKPEDTSVYYCAAELFNVSYGSDFDYWGQGTQVTVSS | low polyreactivity
QVQLVESGGGLVQAGGSLRLSCAASGRTFAYYAMGWYRQAPGKERELVAAISSGGGSTYYADSVKGRFTISRDNAKNTVYLQMNSLKPEDTAVYYCNKGFEYWGQGTQVTVSS | high polyreactivity
QVQLVESGGGLVQAGGSLRLSCAASGRTFAYYAMGWYRQAPGKVRELVAAISSGGRTNYADSVKGRFTISRDNAKNTVYLQMNSLKPEDTAVYYCARKAAYQIYNGQYGGFGYGYWGQGTQVTVSS | high polyreactivity
QVQLVESGGGLVQAGGSLRLSCAASGRTFCRYAMGWYRQAPGKERELVAAIRSGASTYYADSVKGRFTISPDNGKNTVYLQMKSLIPEDTAVYYCAADIARHLTGFAYYRLDYWGQGTQVTVSS | low polyreactivity
QVQLVESGGGLVQAGGSLRLSCAASGRTFCYYAMVWYRRAPGKERELVAAISWSGSRTYYADSVKGRFTISRDNANNSVYLQMTSLKPEDTAVYYCAAGARGLFWEYDYWGQGTQVTVSS | high polyreactivity

Sequence | polyreactivity (PSR sort gate)
QVQLVESGGGLVQAGGSLRLSCAASGRTFDAYAMGWYRQAPGKERELVAAISSGGSTNYADSVKGRFTISRDHAKNTVYLQMNSLKPEDTAVYYCAAEYIQYLFYSVRVAYDYWGQGTQVTVSS | low polyreactivity
QVQLVESGGGLVQAGGSLRLSCAASGRTFDDYAMGWSRQAPGTERELVAAITSGGSTYYADSVKGRFTISRDNAKNTVYLQMNSLKPEDTAVYYCNARSPRPYAYRPYDYWGQGTQVTVSS | low polyreactivity
QVQLVESGGGLVQAGGSLRLSCAASGRTFDGYDMGWYRQAPGQERELVAAINVVGGSTYYADSVKGRFTISRDNAKNTVYLQMNSLKPEDTAVYYCAADDYIYTVYSYTYEYWGQGTQVTVSS | low polyreactivity
QVQLVESGGGLVQAGGSLRLSCAASGRTFDIYAMGWYRQAPGKERELVADITWSDGTTYYADSVKRRFTISRDNAKNTVYLQMTSLTPEDTAVYYCNAYTVYAYDYWGQGTQVTVSS | low polyreactivity
QVQLVESGGGLVQAGGSLRLSCAASGRTFDLYAMGWYRQAHGKERELVAAIRWSSGNTYYADSVKGRFTISRDNAKNTVYLQMNSLKPEDTAVYYCNDELVPFRFEYWGQGTQVTVSS | low polyreactivity
QVQLVESGGGLVQAGGSLRLSCAASGRTFDLYAMGWYRQAPGKERELVAAISGRGGRTYYADSVKGRFTISRDNAKNTVYLQMNSLKPEDTAVYYCAARTGATSRIRFDYWGQGTQVTVSS | low polyreactivity
QVQLVESGGGLVQAGGSLRLSCAASGRTFDLYAMGWYRQAPGKERELVAAITKGGGSTYYADSVKGRFTISRDNAKNTVYLQMNSLKPEDTAVYYCAARFYYPWLYLFDSWGQGTQVTVSS | high polyreactivity
QVQLVESGGGLVQAGGSLRLSCAASGRTFDNNAMGWYRQAPGKERELVAAINWSGVRTYYADSVKGRFTISRDNAKNTVYLQMNSLKPEDTAVYYCNTVSASYYYRYNSWGQGTQVTVSS | high polyreactivity
QVQLVESGGGLVQAGGSLRLSCAASGRTFDRNAMGWYRQAPGKERELVAAITSRGGRTYYADSVKGRFTISRDNAKNTVYLQMKSLKPEDTAVYYCAADLFSSRVRSNFDYWGQGTQVTVSS | high polyreactivity
QVQLVESGGGLVQAGGSLRLSCAASGRTFDRYAMGWYRQAPGKERELVAAISRGGITYYADSVKERFTISRDNAKNTVYLQMNSLKPEDTAVYYCNAVRWADGDYWGQGTQVTVSS | high polyreactivity
QVQLVESGGGLVQAGGSLRLSCAASGRTFDRYAMGWYRQAPGKERELVAAISSGTSTNYADSVKGRFTISRDNAKNTVSLQMNSLKPEDTAVYYCNVDSPLQPYRYYYWGQGTQVTVSS | low polyreactivity
QVQLVESGGGLVQAGGSLRLSCAASGRTFDRYAMGWYRQAPGKERELVAVIRFIGGSTYYADSVKGRFTISRDNAKNTVYLQMISLKPEDTAVYFCAADATIDWVDYDYWGQGTQVTVSS | low polyreactivity
QVQLVESGGGLVQAGGSLRLSCAASGRTFDSYAMGWYRQAPGKERELVAAIYADSVKGRFTISRDNAKNTVYLQMNSLKPEDTAVYYCAARDPSRHARRAYDYWGQGTQVTVSS | low polyreactivity
QVQLVESGGGLVQAGGSLRLSCAASGRTFDSYTMGWYRQAPGKERELLADITFTGGSTYYADSVKGRFTISRDNAKNTVYLQMNSLKPEDTAVYYCAAESVAILGLVYPKGYGYWGQGTQVTVSS | low polyreactivity
QVQLVESGGGLVQAGGSLRLSCAASGRTFDVYAMGGYRQAPGKERELVATIYYRSARTYYADSVKGRFTISRDNAKNTVYLQMNSLTPEDTAVYYCAAYFETWHGFGYWGQGTQVTVSS | high polyreactivity
QVQLVESGGGLVQAGGSLRLSCAASGRTFDVYAMGWYRQAPGKERELVAAISSSGGSTYYADSVKGRFTISRDNAKNTVYLQMNSLKPEDTAVYYCAVYYYSVYQYQAMDYWGQGTQVTVSS | low polyreactivity
QVQLVESGGGLVQAGGSLRLSCAASGRTFDYYAMGWYRPAPGKERELVARISWNGGSTRYADSVKGRFTISRDNAKNTVYLQMNSLKPEDTAVYYCKKVPYYAGQHYDYWGRGTQVTVSS | high polyreactivity
QVQLVESGGGLVQAGGSLRLSCAASGRTFDYYSMGWYRQAPGKERELVAAIRGSGGSTYYADSVKGRFTISRDNAKNTVSLQMNSLKPEDTAVYYCATDPPYFRTPWEYDYWGQGTQVTVSS | low polyreactivity
QVQLVESGGGLVQAGGSLRLSCAASGRTFEGNAMGWYRQAPGKERELVAAISGSGGRTYYADSVKGRFTISRDHAKNTVYLPMNSLKPEHTAVYYATLYSVYNPWRFNYWGQGTQVTVSS | high polyreactivity
QVQLVESGGGLVQAGGSLRLSCAASGRTFEIYAMGWYRQEPGKERELVAAITSGGSTYYADSVKGRFTISRDNAKNTVYLQMNSLKPEDTAVYYCNAYLYYDAHGVDYWGQGTQVTVSS | high polyreactivity
